Results: the supplement of paper PMC9876800

System: peptide library, one residue held at a place counted from the S/T acceptor
Assay: relative phosphorylation of the sub-library (ratio to the mean residue at this position); higher = residue favoured
Outline: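 Purified recombinant kinases (human or orthologue constructs) were incubated in 384-well plates with biotinylated degenerate peptide sub-libraries, each fixing one residue at one position around a central Ser/Thr. Peptides were at 50 μM, with 50 μM ATP spiked with γ-32P-ATP, for 90 min under kinase-specific conditions. Spots on streptavidin membranes were phosphorimaged and quantified by densitometry. Relative sub-library phosphorylation is a ratio to the mean residue at that position.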

CLK1, construct: aa128-end, human, sequence (P49759 128-484, looked up): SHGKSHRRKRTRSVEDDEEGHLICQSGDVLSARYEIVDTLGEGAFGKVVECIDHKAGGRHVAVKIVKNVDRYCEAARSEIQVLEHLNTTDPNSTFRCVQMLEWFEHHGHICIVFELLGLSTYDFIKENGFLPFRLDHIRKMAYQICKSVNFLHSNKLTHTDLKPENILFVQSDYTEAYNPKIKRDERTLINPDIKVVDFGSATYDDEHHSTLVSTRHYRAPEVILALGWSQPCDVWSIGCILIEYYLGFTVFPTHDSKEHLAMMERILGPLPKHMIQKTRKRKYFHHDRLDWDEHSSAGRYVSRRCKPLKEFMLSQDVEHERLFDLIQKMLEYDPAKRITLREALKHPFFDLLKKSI
EEF2K, construct: Full length, human, sequence (O00418 whole entry, looked up): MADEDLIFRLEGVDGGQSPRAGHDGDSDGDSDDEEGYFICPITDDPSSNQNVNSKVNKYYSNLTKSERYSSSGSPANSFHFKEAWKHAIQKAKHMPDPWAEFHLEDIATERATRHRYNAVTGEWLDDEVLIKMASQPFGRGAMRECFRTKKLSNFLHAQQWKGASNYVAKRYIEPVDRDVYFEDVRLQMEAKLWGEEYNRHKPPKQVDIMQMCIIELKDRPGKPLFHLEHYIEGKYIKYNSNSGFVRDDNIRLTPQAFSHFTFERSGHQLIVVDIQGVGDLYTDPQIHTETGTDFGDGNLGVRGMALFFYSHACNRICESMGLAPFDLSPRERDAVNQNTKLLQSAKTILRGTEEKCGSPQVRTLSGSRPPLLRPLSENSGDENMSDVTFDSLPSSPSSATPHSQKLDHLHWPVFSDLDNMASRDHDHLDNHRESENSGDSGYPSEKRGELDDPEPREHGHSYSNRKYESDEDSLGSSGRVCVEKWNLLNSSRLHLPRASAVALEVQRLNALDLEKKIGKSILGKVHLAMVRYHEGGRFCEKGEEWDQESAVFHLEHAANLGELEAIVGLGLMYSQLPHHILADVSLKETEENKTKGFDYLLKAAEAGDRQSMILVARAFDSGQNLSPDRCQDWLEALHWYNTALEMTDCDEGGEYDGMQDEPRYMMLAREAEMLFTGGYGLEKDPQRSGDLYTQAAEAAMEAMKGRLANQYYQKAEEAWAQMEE
DMPK, construct: aa24-433, human, sequence (Q09013 24-433, looked up): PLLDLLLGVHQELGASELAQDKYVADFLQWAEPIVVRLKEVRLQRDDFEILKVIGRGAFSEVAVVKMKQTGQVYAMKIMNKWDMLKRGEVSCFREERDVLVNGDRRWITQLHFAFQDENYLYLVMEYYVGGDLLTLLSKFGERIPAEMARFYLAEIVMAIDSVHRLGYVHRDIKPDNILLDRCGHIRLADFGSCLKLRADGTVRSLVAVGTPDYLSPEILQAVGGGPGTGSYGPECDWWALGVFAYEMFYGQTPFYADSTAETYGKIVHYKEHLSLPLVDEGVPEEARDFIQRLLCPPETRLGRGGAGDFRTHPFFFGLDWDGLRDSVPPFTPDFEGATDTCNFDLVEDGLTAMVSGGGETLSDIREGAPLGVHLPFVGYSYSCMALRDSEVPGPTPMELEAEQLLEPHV

CDC42BPB, construct: aa1-473, human (from UniProt Q9Y5S2)
relative phosphorylation
Details | at +1 | at +2 | at +3 | at +4 | at -1 | at -2 | at -3 | at -4 | at -5
A fixed | 0.871 | 1.22 | 0.922 | 0.791 | 0.734 | 0.478 | 0.556 | 0.951 | 0.922
D fixed | 0.4 | 0.468 | 0.548 | 0.721 | 0.379 | 0.196 | 0.199 | 0.472 | 0.427
E fixed | 0.435 | 0.373 | 0.654 | 0.667 | 0.313 | 0.181 | 0.204 | 0.506 | 0.479
F fixed | 0.776 | 0.935 | 1.01 | 0.821 | 0.552 | 0.442 | 0.381 | 0.718 | 0.843
G fixed | 0.803 | 1.1 | 1.42 | 1.07 | 0.883 | 0.45 | 0.44 | 0.974 | 1.04
H fixed | 0.962 | 1.19 | 1.2 | 1.11 | 1.21 | 0.989 | 1.03 | 1.06 | 0.99
I fixed | 1.55 | 1.32 | 0.96 | 0.924 | 0.572 | 0.419 | 0.382 | 0.651 | 0.788
K fixed | 0.865 | 1.58 | 1.03 | 1.34 | 2.46 | 2.78 | 2.55 | 2.46 | 2.54
L fixed | 1.74 | 0.816 | 0.841 | 0.852 | 1.36 | 0.423 | 0.326 | 0.7 | 0.645
M fixed | 1.24 | 0.823 | 0.944 | 0.919 | 1.04 | 0.459 | 0.36 | 0.775 | 0.664
N fixed | 1.89 | 0.819 | 0.918 | 0.856 | 1.2 | 0.787 | 0.524 | 0.756 | 0.812
P fixed | 0.404 | 0.842 | 0.888 | 1.38 | 0.786 | 0.433 | 0.371 | 0.873 | 0.875
Q fixed | 1.08 | 0.699 | 0.829 | 1.08 | 1.09 | 0.798 | 0.648 | 0.851 | 0.786
R fixed | 1.41 | 1.65 | 1.52 | 1.52 | 2.15 | 6.46 | 7.75 | 3.03 | 2.81
V fixed | 0.983 | 1.13 | 0.936 | 0.787 | 0.667 | 0.397 | 0.335 | 0.637 | 0.768
W fixed | 0.852 | 0.934 | 1.06 | 1.23 | 0.648 | 0.718 | 0.524 | 0.849 | 0.756
Y fixed | 0.736 | 1.12 | 1.33 | 0.93 | 0.97 | 0.591 | 0.425 | 0.735 | 0.856
pThr fixed | 0.479 | 0.762 | 0.582 | 0.698 | 0.344 | 0.329 | 0.352 | 0.647 | 0.611
pTyr fixed | 0.553 | 0.745 | 0.707 | 0.685 | 0.467 | 0.319 | 0.545 | 0.558 | 0.62

CLK1, construct: aa128-end, human (from UniProt P49759)
relative phosphorylation
Details | at +1 | at +2 | at +3 | at +4 | at -1 | at -2 | at -3 | at -4 | at -5
A fixed | 0.598 | 1.12 | 0.654 | 0.682 | 0.844 | 2.56 | 0.707 | 0.901 | 0.836
D fixed | 0.144 | 0.577 | 0.507 | 0.907 | 0.327 | 0.602 | 0.306 | 0.506 | 0.591
E fixed | 0.488 | 0.614 | 0.409 | 0.937 | 0.393 | 1.54 | 0.309 | 0.636 | 0.666
F fixed | 0.442 | 0.909 | 0.713 | 1.01 | 0.669 | 0.339 | 0.317 | 0.87 | 1.86
G fixed | 0.498 | 0.93 | 0.782 | 0.916 | 0.988 | 1.17 | 0.427 | 0.877 | 0.877
H fixed | 0.56 | 1.23 | 1.01 | 0.915 | 0.822 | 0.482 | 0.634 | 1.02 | 0.956
I fixed | 1.22 | 0.828 | 0.552 | 0.678 | 0.538 | 0.257 | 0.383 | 1.03 | 0.9
K fixed | 0.704 | 1.53 | 3.14 | 1.47 | 2.35 | 0.993 | 2.66 | 1.8 | 1.49
L fixed | 0.897 | 0.926 | 0.665 | 0.884 | 1.01 | 0.467 | 0.381 | 1.01 | 0.943
M fixed | 0.839 | 0.985 | 0.633 | 0.907 | 0.999 | 0.427 | 0.394 | 0.866 | 0.891
N fixed | 0.345 | 0.832 | 0.842 | 0.959 | 0.717 | 0.605 | 0.407 | 0.776 | 0.746
P fixed | 5.99 | 1.18 | 1.84 | 0.92 | 0.993 | 0.588 | 0.368 | 0.725 | 0.839
Q fixed | 0.739 | 0.875 | 0.854 | 1.19 | 1.02 | 0.936 | 0.598 | 0.871 | 0.742
R fixed | 0.697 | 1.94 | 2.42 | 1.76 | 2.84 | 5.04 | 8.11 | 2.33 | 1.82
V fixed | 1.95 | 1.08 | 0.627 | 0.722 | 0.667 | 0.345 | 0.325 | 0.92 | 0.809
W fixed | 0.388 | 0.695 | 0.687 | 1.24 | 0.961 | 0.343 | 0.328 | 0.963 | 0.971
Y fixed | 0.505 | 0.757 | 0.673 | 0.913 | 0.862 | 0.314 | 0.344 | 0.89 | 1.06
pThr fixed | 0.711 | 1.62 | 0.67 | 1.58 | 0.273 | 0.444 | 0.355 | 0.642 | 0.501
pTyr fixed | 0.383 | 0.451 | 0.856 | 0.874 | 0.523 | 0.283 | 0.321 | 0.748 | 0.76

DMPK, construct: aa24-433, human (from UniProt Q09013)
relative phosphorylation
Details | at +1 | at +2 | at +3 | at +4 | at -1 | at -2 | at -3 | at -4 | at -5
A fixed | 0.884 | 1.09 | 0.772 | 0.749 | 0.934 | 0.551 | 0.572 | 0.816 | 0.664
D fixed | 0.54 | 1.27 | 0.59 | 0.767 | 0.487 | 0.294 | 0.309 | 0.393 | 0.359
E fixed | 0.471 | 0.67 | 0.579 | 0.643 | 0.362 | 0.268 | 0.284 | 0.456 | 0.379
F fixed | 0.68 | 0.838 | 0.963 | 0.954 | 0.739 | 0.349 | 0.269 | 0.657 | 0.8
G fixed | 1.68 | 0.858 | 1.04 | 0.945 | 1.08 | 0.537 | 0.448 | 0.959 | 0.915
H fixed | 1.2 | 1.38 | 1.14 | 1.05 | 1.01 | 0.716 | 0.776 | 0.898 | 1.07
I fixed | 1.2 | 1.12 | 1.64 | 0.829 | 0.585 | 0.43 | 0.343 | 0.946 | 1.11
K fixed | 1.05 | 1.23 | 1.03 | 1.47 | 2.01 | 2.67 | 3.21 | 2.42 | 2.72
L fixed | 0.967 | 0.883 | 1.04 | 1.09 | 0.674 | 0.418 | 0.343 | 0.749 | 0.847
M fixed | 0.961 | 0.75 | 0.779 | 0.916 | 0.755 | 0.485 | 0.297 | 0.749 | 0.756
N fixed | 1.29 | 0.779 | 0.83 | 1.01 | 1.2 | 0.747 | 0.43 | 0.864 | 0.675
P fixed | 0.622 | 0.808 | 0.79 | 1.18 | 1.74 | 0.474 | 0.461 | 0.796 | 0.872
Q fixed | 1.25 | 1.06 | 0.882 | 1.07 | 1.22 | 0.933 | 0.877 | 0.922 | 0.882
R fixed | 1.87 | 1.28 | 1.54 | 1.47 | 2.18 | 6.76 | 7.34 | 3.06 | 2.66
V fixed | 0.943 | 1.28 | 1.5 | 0.825 | 0.605 | 0.507 | 0.369 | 0.95 | 0.803
W fixed | 0.641 | 0.925 | 0.926 | 1.21 | 0.644 | 0.431 | 0.304 | 0.647 | 0.657
Y fixed | 0.742 | 0.796 | 0.971 | 0.832 | 0.78 | 0.428 | 0.371 | 0.719 | 0.839
pThr fixed | 0.678 | 1.19 | 0.865 | 0.862 | 0.521 | 0.441 | 0.48 | 0.575 | 0.561
pTyr fixed | 0.522 | 0.996 | 0.772 | 0.617 | 0.52 | 0.387 | 0.493 | 0.548 | 0.689

EEF2K, construct: Full length, human (from UniProt O00418)
relative phosphorylation
Details | at +1 | at +2 | at +3 | at +4 | at -1 | at -2 | at -3 | at -4 | at -5
A fixed | 1.46 | 0.748 | 0.733 | 0.852 | 1.3 | 1.1 | 0.971 | 1.01 | 1.08
D fixed | 0.421 | 0.233 | 0.609 | 0.742 | 1.24 | 1.24 | 1.14 | 0.912 | 0.748
E fixed | 1.5 | 0.236 | 0.618 | 0.644 | 1.25 | 1.91 | 1.13 | 0.794 | 0.718
F fixed | 0.935 | 1.16 | 0.583 | 0.718 | 0.881 | 0.935 | 0.971 | 1.61 | 1.17
G fixed | 0.447 | 0.773 | 0.679 | 1.08 | 1.14 | 1.13 | 1.32 | 1.18 | 1.07
H fixed | 0.864 | 1.31 | 0.766 | 1.28 | 1.08 | 0.929 | 0.971 | 0.878 | 0.873
I fixed | 1.4 | 0.647 | 0.417 | 0.651 | 0.598 | 0.739 | 0.945 | 0.932 | 1.02
K fixed | 0.992 | 2.31 | 3.25 | 2.03 | 0.978 | 0.631 | 0.975 | 1.11 | 1.24
L fixed | 1.09 | 0.565 | 0.477 | 0.643 | 0.93 | 0.751 | 0.975 | 1.04 | 0.892
M fixed | 1.13 | 0.909 | 0.504 | 0.799 | 1.05 | 0.848 | 0.978 | 1.17 | 1.1
N fixed | 0.551 | 0.695 | 0.918 | 1.08 | 1.04 | 0.655 | 1.09 | 0.901 | 0.975
P fixed | 0.253 | 0.361 | 0.337 | 0.96 | 0.96 | 1.57 | 1.08 | 0.889 | 1.03
Q fixed | 1.33 | 0.965 | 0.88 | 1.07 | 0.983 | 1.06 | 0.893 | 0.809 | 0.847
R fixed | 1.04 | 3.13 | 4.55 | 1.91 | 1.14 | 0.821 | 1.04 | 1.08 | 1.18
V fixed | 1.72 | 0.776 | 0.537 | 0.665 | 0.567 | 0.833 | 0.848 | 0.876 | 0.993
W fixed | 0.885 | 0.684 | 0.563 | 1.1 | 0.806 | 0.921 | 0.79 | 0.869 | 1.06
Y fixed | 0.989 | 1.49 | 0.581 | 0.762 | 1.06 | 0.918 | 0.886 | 0.939 | 1.02
pThr fixed | 0.777 | 0.601 | 0.648 | 1.05 | 0.619 | 0.91 | 1.27 | 0.982 | 1.29
pTyr fixed | 1.85 | 0.381 | 0.882 | 0.738 | 1 | 2.03 | 1.3 | 0.754 | 1.47
